Assay results reported in US20160279215A1, “NOVEL PEPTIDES AND COMBINATION OF PEPTIDES FOR USE IN IMMUNOTHERAPY AGAINST VARIOUS TUMORS” (immatics biotechnologies GmbH, priority 2015, published 2016).

Biological target: T1, HLA-A*02:01 (human)
T1 construct: MHC monomers captured on streptavidin plates; the UV-sensitive peptide is cleaved and exchanged with the test peptide; also called peptide-receptive MHC molecules; MHC class I
Assay: UV ligand-exchange ELISA (anti-b2m); +++ = exchange yield >=50
Source text: Candidate peptides for T cell based therapies according to the present invention were further tested for their MHC binding capacity (affinity). The individual peptide-MHC complexes were produced by UV-ligand exchange, where a UV-sensitive peptide is cleaved upon UV-irradiation, and exchanged with the peptide of interest as analyzed. Only peptide candidates that can effectively bind and stabilize the peptide-receptive MHC molecules prevent dissociation of the MHC complexes. To determine the yield of the exchange reaction, an ELISA was performed based on the detection of the light chain (β2m) of stabilized MHC complexes. The assay was performed as generally described in Rodenko et al. (Rodenko et al., 2006).
96 well MAXISorp plates (NUNC) were coated over night with 2 ug/ml streptavidin in PBS at room temperature, washed 4× and blocked for 1 h at 37° C. in 2% BSA containing blocking buffer. Refolded HLA-A*02:01/MLA-001 monomers served as standards, covering the range of 15-500 ng/ml. Peptide-MHC monomers of the UV-exchange reaction were diluted 100 fold in blocking buffer. Samples were incubated for 1 h at 37° C., washed four times, incubated with 2 ug/ml HRP conjugated anti-β2m for 1 h at 37° C., washed again and detected with TMB solution that is stopped with […]. Absorption was measured at 450 nm. Candidate peptides that show a high exchange yield (preferably higher than 50%, most preferred higher than 75%) are generally preferred for a generation and production of antibodies or fragments thereof, and/or T cell receptors or fragments thereof, as they show sufficient avidity to the MHC molecules and prevent dissociation of the MHC complexes.

Row | Binder | peptide exchange yield
1 | ALAGIVTNV | 50 to 75%
2 | LLWPSSVPA | 50 to 75%
3 | GLVDIMVHL | 50 to 75%
4 | KLLAVIHEL (also called RAD54B-002) | 50 to 75%
5 | FLMKNSDLYGA | 50 to 75%
6 | IVTEIISEI | 50 to 75%
7 | LLFDWSGTGRADA | 50 to 75%
8 | LLLEAVWHL | 50 to 75%
9 | GLNGFNVLL | 50 to 75%
10 | KMSELQTYV | 50 to 75%
11 | ALFETLIQL | 50 to 75%
12 | LMYPYIYHV | 50 to 75%
13 | KVWSDVTPL (also called MMP-002) | 50 to 75%
14 | ALNESLVEC | 50 to 75%
15 | KIWEELSVLEV (also called MAGEA3-003) | 50 to 75%
16 | GLLETTGLLAT | 50 to 75%
17 | LLWGNLPEI | 50 to 75%
18 | ALLSPLSLA | 50 to 75%
19 | LLDDIFIRL | 50 to 75%
20 | LLWGHPRVALA (also called MXRA5-003) | 50 to 75%
21 | FLPVSVVYV | 50 to 75%
22 | ILAVDGVLSV | 50 to 75%

Row | Binder | peptide exchange yield
23 | ALLEQTGDMSL | 50 to 75%
24 | GLLGKVTSV | 50 to 75%
25 | ALHPVQFYL | 50 to 75%
26 | IITEVITRL | 50 to 75%
27 | FLLDKPQDLSI | 50 to 75%
28 | GLAALAVHL | 50 to 75%
29 | FLNDIFERI | 50 to 75%
30 | AVFNLVHVV | 50 to 75%
31 | KLQEEIPVL | 50 to 75%
32 | HLWGHALFL | 50 to 75%
33 | KLLNMIFSI | 50 to 75%
34 | KQFEGTVEI | 50 to 75%
35 | KLIDHQGLYL | 50 to 75%
36 | LMQDSRLYL | 50 to 75%
37 | ILLSVLHQL | 50 to 75%
38 | KLQEELNKV | 50 to 75%
39 | KISDFGLATV | 50 to 75%
40 | FLTEMVHFI | 50 to 75%
41 | ALSELLQQV | 50 to 75%
42 | FLPQPVPLSV | 50 to 75%
43 | HLFDKIIKI | 50 to 75%
44 | ALSELERVL | 50 to 75%

Now from value to binder:

Row | peptide exchange yield | Binder
45 | 50 to 75% | SLFESLEYL (also called ZFP42-001)
46 | 50 to 75% | YLYQILQGI
47 | 50 to 75% | TLLTFFHEL
48 | 50 to 75% | NVAEIVIHI
49 | 50 to 75% | YLEDGFAYV
50 | 50 to 75% | YLLDMPLWYL
51 | 50 to 75% | VLIEYNFSI
52 | 50 to 75% | TVLQELINV
53 | 50 to 75% | SLLELDGINLRL
54 | 50 to 75% | VLEDKVLSV
55 | 50 to 75% | VLMQDSRLYL
56 | 50 to 75% | TLYNPERTITV (also called IGF-004)
57 | 50 to 75% | RMPTVLQCV
58 | 50 to 75% | YLVPGLVAA
59 | 50 to 75% | TLNTLDINL
60 | 50 to 75% | VLFGELPAL
61 | 50 to 75% | MLLDTVQKV
62 | 50 to 75% | SIIEYLPTL
63 | 50 to 75% | RVIDDSLVVGV
64 | 50 to 75% | SLAGNLQEL
65 | 50 to 75% | VIIKGLEEITV
66 | 50 to 75% | VLDGKVAVV
